{"source": "paper PMC9913818", "key": {"[1]": {"target": "GST-tagged SH2 domain of Abl2 (human) (UniProt P42684)", "test": "pull-down; GST-SH2 domains of Abl1 or Abl2, or GST, on glutathione-Sepharose, incubated with H1993 cell lysates for 3 h at 4 °C in Buffer A; cells treated with 100 nM crizotinib or DMSO for 24 h; Western blot for IQGAP1"}, "[2]": {"target": "GST-tagged SH2 domain of Abl1 (human) (UniProt P00519)", "test": "pull-down; GST-SH2 domains of Abl1 or Abl2, or GST, on glutathione-Sepharose, incubated with H1993 cell lysates for 3 h at 4 °C in Buffer A; cells treated with 100 nM crizotinib or DMSO for 24 h; Western blot for IQGAP1"}, "[3]": {"target": "endogenous Abl2 (H1993 cells) (human (endogenous in H1993)) (UniProt P42684)", "test": "co-IP; endogenous proteins from H1993 cell lysates (Buffer A: 50 mM Tris-HCl pH 7.4, 150 mM NaCl, 1% Triton X-100); IP with anti-MET, anti-IQGAP1, anti-Abl1 or anti-Abl2, controls IgG or non-immune rabbit serum; for the Abl IPs cells also treated with 100 nM crizotinib or DMSO for 24 h"}, "[4]": {"target": "endogenous Abl1 (H1993 cells) (human (endogenous in H1993)) (UniProt P00519)", "test": "co-IP; endogenous proteins from H1993 cell lysates (Buffer A: 50 mM Tris-HCl pH 7.4, 150 mM NaCl, 1% Triton X-100); IP with anti-MET, anti-IQGAP1, anti-Abl1 or anti-Abl2, controls IgG or non-immune rabbit serum; for the Abl IPs cells also treated with 100 nM crizotinib or DMSO for 24 h"}, "Abl1 SH2 domain [5]": {"target": "Abl1 SH2 domain (UniProt P00519)", "test": "SH2 domain microarray probed with fluorescent peptide", "details": "reference: unphosphorylated Tyr1510 peptide; sites Y1510"}, "Abl2 SH2 domain [6]": {"target": "Abl2 SH2 domain (UniProt P42684)", "test": "SH2 domain microarray probed with fluorescent peptide", "details": "reference: unphosphorylated Tyr1510 peptide; sites Y1510"}, "Abl1": {"target": "Abl1 (UniProt P00519)", "test": "co-immunoprecipitation with anti-Abl1", "details": "reference: vehicle (DMSO) treated cells; sites Y1510"}, "Abl1 SH2 domain [7]": {"target": "Abl1 SH2 domain (UniProt P00519)", "test": "GST pull-down from cell lysate", "details": "reference: vehicle (DMSO) treated cells; sites Y1510"}, "Abl2 SH2 domain [8]": {"target": "Abl2 SH2 domain (UniProt P42684)", "test": "GST pull-down from cell lysate", "details": "reference: vehicle (DMSO) treated cells; sites Y1510"}, "Abl2": {"target": "Abl2 (UniProt P42684)", "test": "co-immunoprecipitation with anti-Abl2", "details": "reference: vehicle (DMSO) treated cells; sites Y1510"}, "[9]": {"target": "GST-tagged SH2 domain of Abl2 (human) (UniProt P42684)", "test": "peptide or protein array; GST-tagged SH2 domains of 124 proteins and GST alone spotted in duplicate on nitrocellulose-coated slides; biotinylated IQGAP1 peptides on streptavidin-Cy3 as probes, 16 h at 4 °C in PBS-Tween with 3% milk and 3% BSA; fluorescence read"}, "[10]": {"target": "GST-tagged SH2 domain of Abl1 (human) (UniProt P00519)", "test": "peptide or protein array; GST-tagged SH2 domains of 124 proteins and GST alone spotted in duplicate on nitrocellulose-coated slides; biotinylated IQGAP1 peptides on streptavidin-Cy3 as probes, 16 h at 4 °C in PBS-Tween with 3% milk and 3% BSA; fluorescence read"}}, "data": [{"substance": "endogenous IQGAP1 (H1993 cells) (from UniProt P46940 1-1657) (natural protein)", "values": [{"measurement": "percent less IQGAP1 pulled down after crizotinib against DMSO", "setting": "[1]", "value": 92, "unit": "%"}, {"measurement": "percent less IQGAP1 pulled down after crizotinib against DMSO", "setting": "[2]", "value": 82, "unit": "%"}, {"measurement": "percent decrease of co-immunoprecipitated IQGAP1 after crizotinib against DMSO", "setting": "[3]", "value": 75, "unit": "%"}, {"measurement": "percent decrease of co-immunoprecipitated IQGAP1 after crizotinib against DMSO", "setting": "[4]", "value": 84, "unit": "%"}]}, {"substance": "IQGAP1 1502-1518 (from UniProt P46940) pTyr1510 peptide", "values": [{"measurement": "other: array signal as percent of phosphopeptide signal", "setting": "Abl1 SH2 domain [5]", "value": "gained; reference less than 0.5"}, {"measurement": "other: array signal as percent of phosphopeptide signal", "setting": "Abl2 SH2 domain [6]", "value": "gained; reference less than 0.5"}]}, {"substance": "IQGAP1 (from UniProt P46940) 100 nM crizotinib (MET inhibitor), 24 h", "values": [{"measurement": "other: percent decrease vs vehicle", "setting": "Abl1", "value": 84, "unit": "%"}, {"measurement": "other: percent decrease vs vehicle", "setting": "Abl1 SH2 domain [7]", "value": 82, "unit": "%"}, {"measurement": "other: percent decrease vs vehicle", "setting": "Abl2 SH2 domain [8]", "value": 92, "unit": "%"}, {"measurement": "other: percent decrease vs vehicle", "setting": "Abl2", "value": 75, "unit": "%"}]}, {"substance": "biotinylated IQGAP1 peptide (amino acids 1502 to 1518) with non-phosphorylated Tyr1510 (from UniProt P46940 1502-1518)", "values": [{"measurement": "percent of the binding of the tyrosine-phosphorylated peptide (array fluorescence)", "setting": "[9]", "value": "< 0.5", "unit": "%"}, {"measurement": "percent of the binding of the tyrosine-phosphorylated peptide (array fluorescence)", "setting": "[10]", "value": "< 0.5", "unit": "%"}]}]}
